Test results from patent US20220372142A1 (IGM BIOSCIENCES, published 2022).

Assays:
[1] = biological target: T1, CD20 (UniProt P11836 1-297, limits assumed); assay: cell-based or functional assay
T1 sequence (looked up): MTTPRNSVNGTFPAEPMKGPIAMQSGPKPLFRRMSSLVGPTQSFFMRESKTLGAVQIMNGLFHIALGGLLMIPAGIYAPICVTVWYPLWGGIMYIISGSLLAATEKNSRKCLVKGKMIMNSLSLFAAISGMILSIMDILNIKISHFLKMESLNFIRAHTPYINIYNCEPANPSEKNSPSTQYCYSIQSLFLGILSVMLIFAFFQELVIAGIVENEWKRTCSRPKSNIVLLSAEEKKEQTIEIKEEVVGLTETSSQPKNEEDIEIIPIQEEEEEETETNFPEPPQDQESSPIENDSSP

[2] = biological target: T1, CD20; assay: flow cytometry on Ramos cells, anti-human kappa AF647 detection

B1: RTX-IgM V15J (wt) (bispecific antibody)
VH: QVQLQQPGAELVKPGASVKMSCKASGYTFTSYNMHWVKQTPGRGLEWIGAIYPGNGDTSYNQKFKGKATLTADKSSSTAYMQLSSLTSEDSAVYYCARSTYYGGDWYFNVWGAGTTVTVSA
VL: QIVLSQSPAILSASPGEKVTMTCRASSSVSYIHWFQQKPGSSPKPWIYATSNLASGVPVRFSGSGSGTSYSLTISRVEAEDAATYYCQQWTSNPPTFGGGTKLEIKR
chain: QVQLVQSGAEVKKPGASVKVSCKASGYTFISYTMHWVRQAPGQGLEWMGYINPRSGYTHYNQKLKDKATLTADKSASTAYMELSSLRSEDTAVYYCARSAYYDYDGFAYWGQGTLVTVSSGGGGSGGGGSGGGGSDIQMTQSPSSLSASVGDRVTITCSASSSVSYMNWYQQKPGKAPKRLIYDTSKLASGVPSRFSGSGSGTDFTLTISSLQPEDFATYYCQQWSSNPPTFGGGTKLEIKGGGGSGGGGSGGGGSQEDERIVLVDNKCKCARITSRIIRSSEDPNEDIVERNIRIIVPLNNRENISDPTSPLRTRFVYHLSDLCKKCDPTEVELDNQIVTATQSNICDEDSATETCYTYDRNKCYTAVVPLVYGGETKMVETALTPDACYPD
For B1, the “TDCC on CA46 cells with CD8+ T cells, EC50” value [1] was 0.014 nM, the “TDCC on Ramos cells with CD8+ T cells, % Max.” value (“TDCC on Ramos cells … % Max.” below) [1] was 98% and the “TDCC on Ramos cells with CD8+ T cells, EC50” value (from here on “TDCC on Ramos cells … EC50”) [1] was 0.009 nM. For the same binder, the “TDCC on normal B cells with CD8+ T cells, EC50” value [1] was 0.009 nM.

B2: RTX-IgM V15J (N93D) (bispecific antibody)
VH: QVQLQQPGAELVKPGASVKMSCKASGYTFTSYNMHWVKQTPGRGLEWIGAIYPGNGDTSYNQKFKGKATLTADKSSSTAYMQLSSLTSEDSAVYYCARSTYYGGDWYFNVWGAGTTVTVSA
VL: QIVLSQSPAILSASPGEKVTMTCRASSSVSYIHWFQQKPGSSPKPWIYATSNLASGVPVRFSGSGSGTSYSLTISRVEAEDAATYYCQQWTSDPPTFGGGTKLEIKR
chain: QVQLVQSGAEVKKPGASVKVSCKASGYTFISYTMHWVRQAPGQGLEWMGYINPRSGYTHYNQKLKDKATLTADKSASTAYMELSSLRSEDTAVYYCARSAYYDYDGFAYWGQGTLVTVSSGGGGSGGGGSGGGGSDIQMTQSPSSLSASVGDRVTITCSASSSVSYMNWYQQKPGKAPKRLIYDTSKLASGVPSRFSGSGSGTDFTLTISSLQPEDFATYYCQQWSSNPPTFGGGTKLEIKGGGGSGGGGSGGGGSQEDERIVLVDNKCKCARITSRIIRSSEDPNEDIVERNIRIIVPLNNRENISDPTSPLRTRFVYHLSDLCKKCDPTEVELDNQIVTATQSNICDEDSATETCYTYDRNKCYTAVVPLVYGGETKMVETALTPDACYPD
B2 was tested, and the “TDCC on Ramos cells … % Max.” value [1] was 60% and the “TDCC on Ramos cells … EC50” value [1] was 0.722 nM.

B3: RTX-IgM V15J (N93E) (bispecific antibody)
VH: QVQLQQPGAELVKPGASVKMSCKASGYTFTSYNMHWVKQTPGRGLEWIGAIYPGNGDTSYNQKFKGKATLTADKSSSTAYMQLSSLTSEDSAVYYCARSTYYGGDWYFNVWGAGTTVTVSA
VL: QIVLSQSPAILSASPGEKVTMTCRASSSVSYIHWFQQKPGSSPKPWIYATSNLASGVPVRFSGSGSGTSYSLTISRVEAEDAATYYCQQWTSEPPTFGGGTKLEIKR
chain: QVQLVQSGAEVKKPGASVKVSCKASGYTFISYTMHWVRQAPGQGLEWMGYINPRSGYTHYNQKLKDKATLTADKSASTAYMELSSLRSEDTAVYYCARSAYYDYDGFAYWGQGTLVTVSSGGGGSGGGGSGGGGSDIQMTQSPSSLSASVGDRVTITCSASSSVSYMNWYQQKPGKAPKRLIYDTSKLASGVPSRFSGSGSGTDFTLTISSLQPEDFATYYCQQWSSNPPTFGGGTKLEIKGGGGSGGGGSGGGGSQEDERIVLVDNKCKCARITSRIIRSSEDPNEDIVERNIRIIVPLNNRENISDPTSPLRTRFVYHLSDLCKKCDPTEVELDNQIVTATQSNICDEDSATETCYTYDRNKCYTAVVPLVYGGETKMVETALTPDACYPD
For B3, the “TDCC on Ramos cells … % Max.” value [1] was 80%, the “TDCC on Ramos cells … EC50” value [1] was 0.107 nM and the “TDCC on normal B cells with CD8+ T cells, EC50” value [1] was 0.145 nM.

B4: RTX-IgM + J N93R (antibody)
VH: QVQLQQPGAELVKPGASVKMSCKASGYTFTSYNMHWVKQTPGRGLEWIGAIYPGNGDTSYNQKFKGKATLTADKSSSTAYMQLSSLTSEDSAVYYCARSTYYGGDWYFNVWGAGTTVTVSA
VL: QIVLSQSPAILSASPGEKVTMTCRASSSVSYIHWFQQKPGSSPKPWIYATSNLASGVPVRFSGSGSGTSYSLTISRVEAEDAATYYCQQWTSRPPTFGGGTKLEIKR
chain: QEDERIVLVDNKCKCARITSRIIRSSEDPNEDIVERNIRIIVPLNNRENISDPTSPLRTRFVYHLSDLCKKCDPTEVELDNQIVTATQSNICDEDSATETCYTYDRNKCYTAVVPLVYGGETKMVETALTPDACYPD
notes: Pentameric IgM with wild-type J-chain; IgM constant region of the construct not specified
B4 gave an EC50 [2] of 0.52 nM.

B5: RTX-IgM + J N93K (antibody)
VH: QVQLQQPGAELVKPGASVKMSCKASGYTFTSYNMHWVKQTPGRGLEWIGAIYPGNGDTSYNQKFKGKATLTADKSSSTAYMQLSSLTSEDSAVYYCARSTYYGGDWYFNVWGAGTTVTVSA
VL: QIVLSQSPAILSASPGEKVTMTCRASSSVSYIHWFQQKPGSSPKPWIYATSNLASGVPVRFSGSGSGTSYSLTISRVEAEDAATYYCQQWTSKPPTFGGGTKLEIKR
chain: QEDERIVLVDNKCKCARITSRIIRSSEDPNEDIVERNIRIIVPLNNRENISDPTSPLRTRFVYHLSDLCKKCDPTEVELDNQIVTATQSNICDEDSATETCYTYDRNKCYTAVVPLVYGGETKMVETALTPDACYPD
notes: as for B4
With B5 the EC50 [2] was 0.88 nM.

B6: RTX-IgM + J N93A (antibody)
VH: QVQLQQPGAELVKPGASVKMSCKASGYTFTSYNMHWVKQTPGRGLEWIGAIYPGNGDTSYNQKFKGKATLTADKSSSTAYMQLSSLTSEDSAVYYCARSTYYGGDWYFNVWGAGTTVTVSA
VL: QIVLSQSPAILSASPGEKVTMTCRASSSVSYIHWFQQKPGSSPKPWIYATSNLASGVPVRFSGSGSGTSYSLTISRVEAEDAATYYCQQWTSAPPTFGGGTKLEIKR
chain: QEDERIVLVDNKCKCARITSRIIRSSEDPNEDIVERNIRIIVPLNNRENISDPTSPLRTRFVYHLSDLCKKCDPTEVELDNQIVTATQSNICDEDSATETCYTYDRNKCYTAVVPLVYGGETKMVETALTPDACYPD
notes: as for B4
For B6, the EC50 [2] was 0.69 nM.
